Series [1] is described as follows: Aggregation by analytical size exclusion chromatography (Example 9). The class given is physicochemical. As for the experimental part:
The stability of SG-11 (SEQ ID NO:9) was evaluated following the incubation at 37° C. for one week and at 4° C. for 3 weeks in Buffer C (100 mM sodium phosphate, pH 7.0, 0.5 M sorbitol). The stability was assessed by monitoring the aggregation formation with analytical size exclusion chromatography (SEC) equilibrated with Buffer D (100 mM sodium phosphate, pH 7.0, 10% glycerol). […] The cause of the aggregation was investigated as follows. There are two cysteine residues found in SG-11 at the positions 147 and 151 (relative to SEQ ID NO:7). […] As free sulfhydryl groups could cause aggregation by forming unpreferable intermolecular disulfide bonds, it was examined whether the presence of reducing agent, such as β-mercaptoethanol, could prevent the aggregation.

A short description of series [2]: Stability in fecal slurry, SDS-PAGE and Coomassie blue (Example 14). The conditions noted are these: 37° C., 10 min, 30 min, 1 hr, 2 hr; human fecal pellets in PBS; FIG. 24.
Series [3] concerns trypsin. Kind of series: Incubation with immobilized trypsin, SDS-PAGE (Example 14). The class given is in vitro ADME. The conditions noted are these: room temperature, 10 min to 2 hr, PBS pH 7.4, FIG. 25. The method, then:
An experiment was performed to assess generation of the fragment upon incubation in the presence of trypsin. Columns were prepared to contain 100 μl immobilized Trypsin slurry, washed twice with PBS, loaded with SG-11 (SEQ ID NO:9) diluted in PBS, pH 7.4, then incubated at room temperature for varied times. To stop the reaction, each column was centrifuged to remove protein from the column, then analyzed on an SDS-PAGE gel using Coomassie Blue visualization.

Series [4] can be described thus: Forced degradation under stress conditions (SEC-HPLC, LC/MS/MS) (Example 8). The class given is physicochemical. The conditions noted are these: for Aggregates (SEC-HPLC): 2 weeks. The method, then:
SG-11 (SEQ ID NO:9) was also tested under a series of stress conditions shown in Table 8 below to further characterized the stability of recombinant, purified SG-11. Stressed samples were analyzed either by SEC-HPLC for the presence of aggregates and/or degradants. LC/MS/MS was performed for determination of levels of deamidation and oxidation.
For this analysis, SG-11 (SEQ ID NO:9) was present at a concentration of 1 mg/ml in PBS (50 mM sodium phosphate, 150 mM NaCl, 10% glycerol, pH 8.0), with the exception of tests under pH 4 and pH 9. For pH 4, SG-11 (SEQ ID NO:9) was prepared at a concentration of 1 mg/ml in sodium acetate buffer (50 mM sodium acetate, 150 mM NaCl, pH 4). For pH 9, SG-11 (SEQ ID NO:9) was prepared at a concentration of 1 mg/ml in CAPSO (3-cyclohexylamino-2-hydroxy-1-propanesulfonic acid) buffer (50 mM CAPSO, 150 mM NaCl, pH 9).
Three samples treated by incubation at 40° C. for two weeks, oxidation (H2O2) or high pH 9, respectively, were analyzed by LC/MS/MS for PTMs. […] 7.84% of N53 was deamidated without any treatment.
After reduction, free cysteines were artificially carbamidomethylated by iodoacetamide to block cysteine residues from oxidation in the assays.

Results on 1 molecule are retold here after patent US11505583B2, “Proteins for the treatment of epithelial barrier function disorders” (Second Genome, Inc., priority 2018, dated 2022).

B1: SG-11 (SEQ ID NO:9): SG-11 (SEQ ID NO:3) with a FLAG-tag (DYKDDDDK) at the N-terminus (protein)
chain: MDYKDDDDKGSSHMLEGEESVVYVGKKGVIASLDVETLDQSYYDETELKSYVDAEVEDYTAEHGKNAVKVESLKVEDGVAKLKMKYKTPEDYTAFNGIELYQGKVVASLAAGYVYDGEFARVEEGKVVGAATKQDIYSEDDLKVAIIRANTDVKVDGEICYVSCQNVKLTGKDSVSIRDGYYLETGSVTASVDVTGQESVGTEQLSGTEQMEMTGEPVNADDTEQTEAAAGDGSFETDVYTFIVYK
modifications: N-terminal FLAG tag
For the molecule B1, the “Aggregation formation (analytical SEC)” value in series [1] (4-days incubation at 37° C. in presence of 2.5% (v/v) mercaptoethanol, 50 mM sodium phosphate, 150 mM NaCl, 10% glycerol) is listed as “Aggregation was greatly suppressed”; in series [1] (4° C. for 3 weeks in Buffer C (100 mM sodium phosphate, pH 7.0, 0.5 M sorbitol), vs freshly thawed protein), “No noticeable change”; in series [1] (37° C. for one week in Buffer C (100 mM sodium phosphate, pH 7.0, 0.5 M sorbitol)), “clearly showed aggregation peaks”. Moreover, in series [2], the “Stability in fecal slurry (SDS-PAGE)” value is “generation of a predominant band with an apparent molecular weight of about 25 kDa”. In addition, the “Product on incubation with trypsin (SDS-PAGE)” value in series [3] is “a predominant band is generated in the presence of trypsin”. In addition, the “Aggregates (SEC-HPLC)” value in series [4] (4° C.) is reported as “low level of aggregates”; in series [4] (37° C.) it was “major aggregation occurred”. Further, the “Aggregation or degradation (SEC-HPLC)” value in series [4] (mechanical stress) is recorded as “do not cause either protein aggregation or degradation”; in series [4] (repeated freeze and thaw), “do not cause either protein aggregation or degradation”.
